B1: SV2A: N498Q (protein)
parent chain: MEEGFRDRAAFIRGAKDIAKEVKKHAAKKVVKGLDRVQDEYSRRSYSRFEEEEDDDDFPAPADGYYRGEGAQDEEEGGASSDATEGHDEDDEIYEGEYQGIPRAESGGKGERMADGAPLAGVRGGLSDGEGPPGGRGEAQRRKDREELAQQYETILRECGHGRFQWTLYFVLGLALMADGVEVFVVGFVLPSAEKDMCLSDSNKGMLGLIVYLGMMVGAFLWGGLADRLGRRQCLLISLSVNSVFAFFSSFVQGYGTFLFCRLLSGVGIGGSIPIVFSYFSEFLAQEKRGEHLSWLCMFWMIGGVYAAAMAWAIIPHYGWSFQMGSAYQFHSWRVFVLVCAFPSVFAIGALTTQPESPRFFLENGKHDEAWMVLKQVHDTNMRAKGHPERVFSVTHIKTIHQEDELIEIQSDTGTWYQRWGVRALSLGGQVWGNFLSCFSPEYRRITLMMMGVWFTMSFSYYGLTVWFPDMIRHLQAVDYAARTKVFPGERVEHVTFNFTLENQIHRGGQYFNDKFIGLRLKSVSFEDSLFEECYFEDVTSSNTFFRNCTFINTVFYNTDLFEYKFVNSRLVNSTFLHNKEGCPLDVTGTGEGAYMVYFVSFLGTLAVLPGNIVSALLMDKIGRLRMLAGSSVLSCVSCFFLSFGNSESAMIALLCLFGGVSIASWNALDVLTVELYPSDKRTTAFGFLNALCKLAAVLGISIFTSFVGITKAAPILFASAALALGSSLALKLPETRGQVLQ
B2: SV2A: N548Q (protein)
parent chain: MEEGFRDRAAFIRGAKDIAKEVKKHAAKKVVKGLDRVQDEYSRRSYSRFEEEEDDDDFPAPADGYYRGEGAQDEEEGGASSDATEGHDEDDEIYEGEYQGIPRAESGGKGERMADGAPLAGVRGGLSDGEGPPGGRGEAQRRKDREELAQQYETILRECGHGRFQWTLYFVLGLALMADGVEVFVVGFVLPSAEKDMCLSDSNKGMLGLIVYLGMMVGAFLWGGLADRLGRRQCLLISLSVNSVFAFFSSFVQGYGTFLFCRLLSGVGIGGSIPIVFSYFSEFLAQEKRGEHLSWLCMFWMIGGVYAAAMAWAIIPHYGWSFQMGSAYQFHSWRVFVLVCAFPSVFAIGALTTQPESPRFFLENGKHDEAWMVLKQVHDTNMRAKGHPERVFSVTHIKTIHQEDELIEIQSDTGTWYQRWGVRALSLGGQVWGNFLSCFSPEYRRITLMMMGVWFTMSFSYYGLTVWFPDMIRHLQAVDYAARTKVFPGERVEHVTFNFTLENQIHRGGQYFNDKFIGLRLKSVSFEDSLFEECYFEDVTSSNTFFRNCTFINTVFYNTDLFEYKFVNSRLVNSTFLHNKEGCPLDVTGTGEGAYMVYFVSFLGTLAVLPGNIVSALLMDKIGRLRMLAGSSVLSCVSCFFLSFGNSESAMIALLCLFGGVSIASWNALDVLTVELYPSDKRTTAFGFLNALCKLAAVLGISIFTSFVGITKAAPILFASAALALGSSLALKLPETRGQVLQ

Details: glycan lost

Protein	other: toxin entry into neurons
B1	no change
B2	no change
